Measurements as given in patent US20260116991A1 (HAINAN SIMCERE ZAIMING PHARMACEUTICAL, published 2026).
Changes are numbered by the printed parent chain. Each block holds one binder with its values, some of them ahead of it.

Experiments:
[1] = molecular target: T1, GPC3 endogenously expressed on HepG2 cells (UniProt P51654 25-554); assay: FACS on HepG2 cells;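 further: flow cytometric binding of chimeric antibodies to cells, read as mean fluorescence intensity, EC50 obtained by curve fitting of the MFI data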
T1 construct: whole, on cells
Experimental: (§1) The desired cells were expanded to a logarithmic growth phase in a T-75 cell culture flask, the medium was removed by pipetting, and the cells were washed twice with a PBS buffer, and digested with trypsin. Then a complete medium was added to stop the digestion, and the cells were blown into a single cell suspension. After counting, the cells were centrifuged, and the cell pellet was resuspended with an FACS buffer (PBS+2% fetal bovine serum) to 2×10⁶ cells/mL. The cell resuspension solution was added to a 96-well FACS reaction plate at 50 μl/well, and a chimeric antibody sample to be tested was added at 50 μl/well for incubation at 4° C. for 1 h. […] After the plate was centrifuged and washed 3 times with a PBS buffer, 100 μl of the resulting solution was assayed and analyzed by FACS (FACS Canto™, purchased from BD Biosciences). Data analysis was performed by software (FlowJo) to obtain the mean fluorescence intensity (MFI) of the cells. Then, analysis was performed by software (GraphPad Prism8), data were fitted, and EC₅₀ values were calculated.

[2] = molecular target: T2, human GPC3 on CHO-K1-human GPC3 cells (clone CHOK1-hGPC3.2B5) (human, UniProt P51654 25-554); assay: FACS on CHOK1-hGPC3.2B5 cells;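 further: flow cytometry binding of chimeric antibodies to the cells, read out as mean fluorescence intensity, with the half-maximal concentration derived by curve fitting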
T2 construct: whole, on cells; Stably transfected CHO-K1 clone 2B5
Experimental: as §1

[3] = molecular target: T3, human GPC3-His protein (human, UniProt P51654 25-559); assay: ELISA, coated human GPC3, antibody 1 nM;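 further: antigen coated at 1 µg/mL on 96-well plates, antibody bound for 2 h at 37 °C, detected with HRP-labeled secondary antibody and TMB, absorbance read at 450 nm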
T3 construct: Bought protein; also called human GPC3 protein; not shown: His tag

[4] = molecular target: T3, human GPC3-His protein; assay: ELISA, coated human GPC3, antibody 10 nM;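 further: plate coated with antigen at 1 µg/mL, antibodies bound 2 h at 37 °C, detected via HRP-conjugated secondary antibody and TMB substrate, absorbance read after acid stop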
[5] = molecular target: T3, human GPC3-His protein; assay: ELISA, coated human GPC3, antibody 0.1 nM;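 further: antigen coated on 96-well plates at 1 µg/mL, antibody bound 2 h at 37 °C, detected with HRP-labeled secondary antibody and TMB substrate, acid-stopped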
[6] = molecular target: T3, human GPC3-His protein; assay: ELISA, coated human GPC3, antibody 100 nM;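 further: antibodies bound to antigen-coated 96-well plates (1 µg/mL), 2 h at 37 °C, detected with HRP-labelled secondary antibody and TMB substrate, absorbance read at 450 nm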
Experimental: (§2) The specific method is described as follows: The antigen protein was diluted with PBS to a final concentration of 1 μg/mL, and the diluent was added to a 96-well ELISA plate at 50 μL/well. The plate was sealed with a plastic film and incubated at 4° C. overnight, washed twice with PBS the next day, and a blocking solution [PBS+2% (w/w) BSA] was added for blocking at room temperature for 2 h. […] After incubation at 37° C. for 2 h, the plate was washed 3 times with PBS. A horseradish peroxidase (HRP)-labeled secondary antibody (purchased from Merck, Cat. No. AP113P) was added for incubation at 37° C. for 1 h, and the plate was washed 5 times with PBS. A TMB substrate was added at 50 μL/well for incubation at room temperature for 10 min, then a stop solution (1.0M HCl) was added at 50 μL/well. An ELISA plate reader (Multimode Plate Reader, EnSight, purchased from Perkin Elmer) was used to read OD_{450 nm} values, with results as shown in Table 4 to Table 6, FIG. 1A, FIG. 1B, and FIG. 1C.

[7] = molecular target: T3, human GPC3-His protein; assay: ELISA, coated human GPC3, antibody 0.01 nM;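 further: Plate-bound antigen coated at 1 µg/mL, antibody incubated 2 h at 37 °C, binding detected by HRP-conjugated secondary antibody with TMB substrate, read as absorbance at 450 nm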
Experimental: as §2

[8] = molecular target: T3, human GPC3-His protein; assay: ELISA, coated human GPC3, antibody 0.001 nM
[9] = molecular target: T3, human GPC3-His protein; assay: ELISA, coated human GPC3, antibody 0.0001 nM

B3: F2.152.3 human-murine chimeric antibody (antibody, human IgG1, kappa, V domains shown)
VH: EVQLQQSGPELVKPGASVKMSCKASGYTFTDYYMTWVKQSHGKSLEWIGRVNPRNGDTTYNQKFEGRATLTLDKSLSTAFMQLNSLTSEDSAVYYCINSKGHFDYWGQGTTLTVSS
VL: DVLMTQTPLSLPVSLGDQASISCRSSQSIVHSNGNTYLEWFLQKPGQSPKSLIYKVSNRFSGVPDRFSGSGSGTDFTLKISRVEAEDLGVYYCFQGSHVPPTFGAGTKLELKR
EC50 [1]: 0.23 nM
Max MFI [1]: 4490 MFI
EC50 [2]: 0.73 nM
Max MFI [2]: 2830 MFI
OD450 nm [3]: 2.28 OD450
OD450 nm [4]: 2.43 OD450
OD450 nm [5]: 1.45 OD450
OD450 nm [6]: 2.43 OD450
OD450 nm [7]: 0.32 OD450
OD450 nm [8]: 0.13 OD450
OD450 nm [9]: 0.1 OD450

B4: F4.21.16 human-murine chimeric antibody (antibody, human IgG1, kappa, V domains shown)
VH: DVQLQESGPGLVKPSQSLSLTCSVTGYSITSGYYWNWIRQFPGNKLEWMGYISYDVTVNYNPSLKNRISITRDTSKNQFFLKLNSVTTEDTATYYCATITSVASMDHWGQGTSVTVSS
VL: DILMTQTPLSLPVSLGDQASISCRSSQNIVHRNGNTYLEWYLQKPGQSPKLLLYKVSNRFSGVPDRFSGSGSGTDFTLKISRVEAEDLGIYYCFQGSHFPFTFGSGTKLEIKR
EC50 [1]: 2.31 nM
Max MFI [1]: 1710 MFI
EC50 [2]: 3.25 nM
Max MFI [2]: 2170 MFI
OD450 nm [3]: 1.37 OD450
OD450 nm [4]: 1.14 OD450
OD450 nm [5]: 0.46 OD450
OD450 nm [6]: 0.52 OD450
OD450 nm [7]: 0.15 OD450
OD450 nm [8]: 0.1 OD450
OD450 nm [9]: 0.1 OD450

B5: F3.38.7 human-murine chimeric antibody (antibody, human IgG1, kappa, V domains shown)
VH: QVQLQQSGAELVRPGASVKLSCKASGYTFTDYEIHWVKQTPVLGLEWIGAIDPKTGNTAYNQKFMGKATLTADKSSTTAYMDLRSLTSEDSAVYYCTRYFSFAYWGQGTLVTVSA
VL: B3 VL with S28T, I29F, E39Q, F41Y, S51L, P101Y, A105S, L111I
EC50 [1]: 1.2 nM
Max MFI [1]: 4980 MFI
EC50 [2]: 0.85 nM
Max MFI [2]: 16200 MFI
OD450 nm [3]: 2.18 OD450
OD450 nm [4]: 2.44 OD450
OD450 nm [5]: 1.62 OD450
OD450 nm [6]: 2.48 OD450
OD450 nm [7]: 0.38 OD450
OD450 nm [8]: 0.13 OD450
OD450 nm [9]: 0.09 OD450

B7: F2.39.2 human-murine chimeric antibody (antibody, human IgG1, kappa, V domains shown)
VH: QVQLQQSGAELVRPGASVKVSCKASGYTFTDYEMHWMKQTPVHGLEWIGANEPETGRSAYDQKFKGKATLTADKSSSTAYMELRSLTSEDSAVYYCTRFYSFAYWGQGTLVTVSA
VL: DVVMTQTPLSLPVSLGDQASISCRSSQGLVHNNGNTYLHWYLQKPGQSPKLLIYKVSNRFSGVPDRFSGSGSGTDFTLKISRVEAEDLGVYFCSQNTHVPPTFGGGTKLEIKR
EC50 [1]: 0.95 nM
Max MFI [1]: 12700 MFI
EC50 [2]: 1 nM
Max MFI [2]: 26500 MFI
OD450 nm [3]: 2.21 OD450
OD450 nm [4]: 2.34 OD450
OD450 nm [5]: 1.33 OD450
OD450 nm [6]: 2.3 OD450
OD450 nm [7]: 0.34 OD450
OD450 nm [8]: 0.12 OD450
OD450 nm [9]: 0.1 OD450

B8: F2.92.1 human-murine chimeric antibody (antibody, human IgG1, kappa, V domains shown)
VH: QVQLQQSGAELVRPGASVKLSCKASGYIFSDYEIHWVKQTPVHGLECIGAVDPETGGTAYNQKFKGKATLTADKSSSTAYMELRSLTSEDSAVYFCTRFYSFAYWGQGTLVTVST
VL: B7 VL with A19G, G28S, N32S, H39Q, S94C, N96S, P100L
EC50 [1]: 0.92 nM
Max MFI [1]: 14000 MFI
EC50 [2]: 0.92 nM
Max MFI [2]: 29400 MFI
OD450 nm [3]: 2.24 OD450
OD450 nm [4]: 2.23 OD450
OD450 nm [5]: 1.23 OD450
OD450 nm [6]: 2.45 OD450
OD450 nm [7]: 0.32 OD450
OD450 nm [8]: 0.12 OD450
OD450 nm [9]: 0.11 OD450

B9: F4.26.1 human-murine chimeric antibody (antibody, human IgG1, kappa, V domains shown)
VH: QVQLKQSGPGLVQPSQSLSITCTVSGFSLTSYGVHWVRQSPGKGLEWLGVIWSSGNTDYNAVLISRLSIKKDDSKSQVFFKMNSPQVDDSAIYYCGRNGGWLLRGFMDFWGQGTSVTVSS
VL: B7 VL with G28S, V30L, N32S, K44R, P45S, K50N, S70G, V90I, N96S, P101W
EC50 [1]: 0.85 nM
Max MFI [1]: 1600 MFI
EC50 [2]: 1.21 nM
Max MFI [2]: 2810 MFI
OD450 nm [3]: 1.25 OD450
OD450 nm [4]: 1.43 OD450
OD450 nm [5]: 0.64 OD450
OD450 nm [6]: 1 OD450
OD450 nm [7]: 0.18 OD450
OD450 nm [8]: 0.11 OD450
OD450 nm [9]: 0.09 OD450

B10: F3.54.12 human-murine chimeric antibody (antibody, human IgG1, kappa, V domains shown)
VH: QVQLQQSGAELVRPGASVKLSCKASGYTFTDYEMHWVKQTPVHGLEWIGAIDPETGNTAYIQKFKGKATLTTDKSSSTAYMELRSLTSEDSAVYYCTRFYSYSHWGQGTTLTVSS
VL: B7 VL with G28S, N32S, G71S
EC50 [1]: 0.83 nM
Max MFI [1]: 4460 MFI
EC50 [2]: 0.72 nM
Max MFI [2]: 15000 MFI
OD450 nm [3]: 2.29 OD450
OD450 nm [4]: 2.41 OD450
OD450 nm [5]: 1.58 OD450
OD450 nm [6]: 2.44 OD450
OD450 nm [7]: 0.48 OD450
OD450 nm [8]: 0.15 OD450
OD450 nm [9]: 0.13 OD450

The remaining binders from weak to strong by EC50 [1], led by results:

EC50 [1]: 2.72 nM
Max MFI [1]: 5740 MFI
EC50 [2]: 2.58 nM
Max MFI [2]: 14100 MFI
OD450 nm [3]: 2.04 OD450
OD450 nm [4]: 2.49 OD450
OD450 nm [5]: 0.87 OD450
OD450 nm [6]: 2.45 OD450
OD450 nm [7]: 0.19 OD450
OD450 nm [8]: 0.28 OD450
OD450 nm [9]: 0.1 OD450
B2: F3.81.19 human-murine chimeric antibody (antibody, human IgG1, kappa, V domains shown)
VH: B10 VH with A50T, I61N, T72A, F99P, Y102L, S103T, H104Y, T110L, L111V, S115A
VL: B3 VL with M4L, I29F, N35D, E39Q, F41Y, S51L, P101Y, A105S, L111I

EC50 [1]: 1.64 nM
Max MFI [1]: 11300 MFI
EC50 [2]: 1.48 nM
Max MFI [2]: 23200 MFI
OD450 nm [3]: 2.16 OD450
OD450 nm [4]: 2.35 OD450
OD450 nm [5]: 1.28 OD450
OD450 nm [6]: 2.51 OD450
OD450 nm [7]: 0.29 OD450
OD450 nm [8]: 0.12 OD450
OD450 nm [9]: 0.1 OD450
B6: F2.23.8 human-murine chimeric antibody (antibody, human IgG1, kappa, V domains shown)
VH: B8 VH with I28T, S30T, I34M, C47W, I48F, V51I, K65R, G66A, F95Y, T115A
VL: B7 VL with G28S, N32S, H39Q, S81T, N96S, P101Y, G105S

EC50 [1]: 0.92 nM
Max MFI [1]: 1390 MFI
EC50 [2]: 0.89 nM
Max MFI [2]: 2370 MFI
OD450 nm [3]: 1.41 OD450
OD450 nm [4]: 1.18 OD450
OD450 nm [5]: 0.83 OD450
OD450 nm [6]: 1.02 OD450
OD450 nm [7]: 0.26 OD450
OD450 nm [8]: 0.15 OD450
OD450 nm [9]: 0.16 OD450
B12: F4.18.4 human-murine chimeric antibody (antibody, human IgG1, kappa, V domains shown)
VH: QVQLHQSGAEMAKPGASVNLSCKTSGFTFTDYGISWVKQRTRQGLEWIGDIYPRHINIYYNEKFKDKATLTADRSSSTAYMELRSMTSEDSAVYFCARRGTTGRGALDYWGQGTSLTVSS
VL: DILLTQSPAILSVSPGERVSFSCRASQSIGTSIHWYQQRTNGSPRLLIKYAFESISGIPSRFGGSGSRTDFTLTINSVESEDIADYYCQQTYNWPYTFGGGTKLEIKR

EC50 [1]: 0.65 nM
Max MFI [1]: 3980 MFI
EC50 [2]: 1.06 nM
Max MFI [2]: 17300 MFI
OD450 nm [3]: 2.24 OD450
OD450 nm [4]: 2.52 OD450
OD450 nm [5]: 1.25 OD450
OD450 nm [6]: 2.43 OD450
OD450 nm [7]: 0.27 OD450
OD450 nm [8]: 0.11 OD450
OD450 nm [9]: 0.1 OD450
B1: F2.169.2 human-murine chimeric antibody (antibody, human IgG1, kappa, V domains shown)
VH: EVQLVETGGGLVQPKGSLKLSCAASGFSFNTNAMNWVRQAPGKGLEWVARIRSKSNNYATYYADSVKDRFTISRDDSQSMLYLQMNNLKTEDTAMYYCVRDGYYVLFAYWGQGTLVTVSA
VL: B3 VL with S25F, H31N, S51L, P101F, A105T, L111I

EC50 [1]: 0.58 nM
Max MFI [1]: 1150 MFI
EC50 [2]: 1.1 nM
Max MFI [2]: 1710 MFI
OD450 nm [3]: 2.28 OD450
OD450 nm [4]: 2.27 OD450
OD450 nm [5]: 1.27 OD450
OD450 nm [6]: 2.3 OD450
OD450 nm [7]: 0.3 OD450
OD450 nm [8]: 0.12 OD450
OD450 nm [9]: 0.1 OD450
B11: F4.13.7 human-murine chimeric antibody (antibody, human IgG1, kappa, V domains shown)
VH: QVQLQQPGAELVKPGASVKLSCKASGYTFTNNWVHWVKQRPGQGLEWTGMIHPDSGSTIYNEKFQSKATLTVDKSSSTAYMQLSSLTSEDSAVYYCARGYYDSSSYYAMDYWGQGTSVTVSS
VL: NIQMTQTTSSLSASLGDRVTISCSASQGIFNYLNWYQQKPDGTVKLLIYYTSSLHSGVPSRFSGSGSGTDYSLTISNLEPEDIATYYCQQYSKLPWTFGGGTKLEIKR
